The record followed here is paper PMC10141234, “Adjusting Heterodimeric Coiled-Coils (K/E Zipper) to Connect Autophagy-Inducing Peptide with Cell-Penetrating Peptide” (Pharmaceutics, 2023).

What is called Kd is the constant that tells how readily two partners part at equilibrium. The term stoichiometry N denotes the number of molecules, sites or subunits per partner or assembly.

Experiment [1] has as its target E2-CPP (Fam-labelled octaarginine cell-penetrating peptide with two EIAALEK units at its N-terminus). To be noted: scale: LC3-II/actin ratio.
Experiment [2] deals with E3-CPP (Fam-labelled octaarginine cell-penetrating peptide with three EIAALEK units at its N-terminus). The experiment can be described thus: other fluorescence titration; En-CPP (Fam) fixed at 50 nM, AIP-Kn (Tmr) added to Tmr/Fam ratios 0-2.0; PBS pH 7.0, 25 °C; excitation 495 nm, Fam fluorescence at 525 nm quenched by FRET to Tmr; Kd by fit to equation (1), with the saturation intensity Fs taken from AIP-K4/E4-CPP.
Sequence of E3-CPP (Fam-labelled octaarginine cell-penetrating peptide with three EIAALEK units at its N-terminus) (peptide, as listed by the source): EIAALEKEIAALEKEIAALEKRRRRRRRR

For experiment [3] the target is unchanged. To be noted: scale: LC3-II/actin ratio.
For experiment [4], the target named is E4-CPP (Fam-labelled octaarginine cell-penetrating peptide with four EIAALEK units at its N-terminus). Put plainly: other fluorescence titration; En-CPP (Fam) fixed at 50 nM, AIP-Kn (Tmr) added to Tmr/Fam ratios 0-2.0; PBS pH 7.0, 25 °C; excitation 495 nm, Fam fluorescence at 525 nm quenched by FRET to Tmr; Kd by fit to equation (1), with the saturation intensity Fs taken from AIP-K4/E4-CPP.
Sequence of E4-CPP (Fam-labelled octaarginine cell-penetrating peptide with four EIAALEK units at its N-terminus) (peptide, as listed by the source): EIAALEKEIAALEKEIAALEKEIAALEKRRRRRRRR

The target is the same in experiment [5]. To be noted: scale: LC3-II/actin ratio.
The subject of a further experiment is HeLa cells. The experiment can be described thus: Intracellular delivery of K/E hybrids by confocal laser microscopy. It counts as cell-based. To be noted: 10 μM equimolar AIP-Kn/En-CPP mixture, 1 h, 37 °C, conclusion from Fam/Tmr signals. As to the method:
HeLa cells were cultured in DMEM supplemented with 10% heat-inactivated FBS in a 5% CO2 incubator at 37 °C. The HeLa cell line has been stocked and propagated in Dr. Masaaki Miyazawa’s laboratory.
AIP-Kn and En-CPP (n = 2, 3, and 4) were dissolved in DMSO at 10 mM each to make a stock peptide solution. The stock solution was diluted to the desired concentration using Opti-MEM. Equal volumes of the diluted AIP-Kn and En-CPP were mixed in a 1.5 mL tube for 1 h with rotation at room temperature to generate hybrids. For single-component controls (AIP-Kn or En-CPP only), equal volumes of the diluted AIP-Kn or En-CPP and Opti-MEM with DMSO, which was added instead of the stock peptide solution, were mixed in a 1.5 mL tube, and the mixture was then treated in a manner similar to that for the hybrid formation. […]
One day before peptide treatment, 1 × 10^5 cells in 2 mL of HeLa cells were seeded on a glass-bottomed dish (Matsunami Glass, Osaka, Japan) and cultured in a 5% CO2 incubator at 37 °C. […] After washing the cells, 2 mL of PBS was added and fluorescence signals from the cells were observed using a confocal laser microscope with a Plan Apo 60× oil-immersion DIC H objective (CLMS; C2si Ready; Nikon, Tokyo, Japan). Data were analyzed using NIS-Elements Advanced research software (Nikon).

Sequence of E2-CPP (Fam-labelled octaarginine cell-penetrating peptide with two EIAALEK units at its N-terminus) (peptide, as listed by the source): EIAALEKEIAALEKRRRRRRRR

On to “AIP-K2 (Tmr-labelled autophagy-inducing peptide with two KIAALKE units at its C-terminus)”, for which, in experiment [1], the autophagy induction in HeLa cells, LC3-II/actin ratio by immunoblot, 10 μM, 3 h, relative to AIP-K3/E3-CPP amounted to 0.08.
For the substance “AIP-K3 (Tmr-labelled autophagy-inducing peptide with three KIAALKE units at its C-terminus)”, in experiment [2], the Kd amounted to 20 nM and the stoichiometry N was found to be 1. The autophagy induction in HeLa cells, LC3-II/actin ratio by immunoblot, 10 μM, 3 h, the reference of the ratio in experiment [3] was found to be 1.
For the substance “AIP-K4 (Tmr-labelled autophagy-inducing peptide with four KIAALKE units at its C-terminus)”, in experiment [4], the Kd was 2 nM and the stoichiometry N worked out at 1. Besides, the autophagy induction in HeLa cells, LC3-II/actin ratio by immunoblot, 10 μM, 3 h, relative to AIP-K3/E3-CPP in experiment [5] worked out at 0.59.
In the case of “Fam-(EIAALEK)2-RRRRRRRR [E2-CPP, octaarginine modified with (EIAALEK)2 at its N-terminus, labeled with fluorescein]”, the “intracellular delivery (translocation into cells)” value in the experiment with HeLa cells was “alone translocates across the plasma membrane”.
